Source: paper PMC2712734 (Nature structural & molecular biology, 2009)
Residue numbers refer to the chain shown, from its start.

T1: GST-CHMP3 V48D, A64D (human, UniProt Q9Y3E7 1-222, V48D | A64D)
T1 sequence (looked up): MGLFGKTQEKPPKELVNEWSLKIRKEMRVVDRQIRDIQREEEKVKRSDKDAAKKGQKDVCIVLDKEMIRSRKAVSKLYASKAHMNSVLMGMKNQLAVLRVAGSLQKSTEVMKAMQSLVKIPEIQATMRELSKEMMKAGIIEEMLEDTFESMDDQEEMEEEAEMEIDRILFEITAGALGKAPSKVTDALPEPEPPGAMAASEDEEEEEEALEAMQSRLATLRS

T2: GST-CHMP3, wild type (human, UniProt Q9Y3E7 1-222)
T2 sequence (looked up): T1 sequence (looked up) with D48V, D64A

T3: GST-CHMP3 I168D, L169D (human, UniProt Q9Y3E7 1-222, I168D | L169D)
T3 sequence (looked up): T1 sequence (looked up) with D48V, D64A, I168D, L169D

T4: CHMP3 V48D, A64D (human, UniProt Q9Y3E7 1-222, V48D | A64D)
T4 sequence (looked up): T1 sequence (looked up)

T5: CHMP3 I168D, L169D (human, UniProt Q9Y3E7 1-222, I168D | L169D)
T5 sequence (looked up): T1 sequence (looked up) with D48V, D64A, I168D, L169D

B1: GST-CHMP3_(1-150) (domain or fragment, human, UniProt Q9Y3E7 1-150, looked up)
chain: MGLFGKTQEKPPKELVNEWSLKIRKEMRVVDRQIRDIQREEEKVKRSVKDAAKKGQKDVCIVLAKEMIRSRKAVSKLYASKAHMNSVLMGMKNQLAVLRVAGSLQKSTEVMKAMQSLVKIPEIQATMRELSKEMMKAGIIEEMLEDTFES
B2: CHMP3_(1-150) (domain or fragment, human, UniProt Q9Y3E7 1-150, looked up)
chain: B1 chain
B3: CHMP2A, full length, pure recombinant (natural protein, human, UniProt O43633 1-222, looked up)
chain: MDLLFGRRKTPEELLRQNQRALNRAMRELDRERQKLETQEKKIIADIKKMAKQGQMDAVRIMAKDLVRTRRYVRKFVLMRANIQAVSLKIQTLKSNNSMAQAMKGVTKAMGTMNRQLKLPQIQKIMMEFERQAEIMDMKEEMMNDAIDDAMGDEEDEEESDAVVSQVLDELGLSLTDELSNLPSTGGSLSVAAGGKKAEAAASALADADADLEERLKNLRRD
B4: GST-IST1NTD, wild type (domain or fragment, human, UniProt P53990 1-189, looked up)
chain: MLGSGFKAERLRVNLRLVINRLKLLEKKKTELAQKARKEIADYLAAGKDERARIRVEHIIREDYLVEAMEILELYCDLLLARFGLIQSMKELDSGLAESVSTLIWAAPRLQSEVAELKIVADQLCAKYSKEYGKLCRTNQIGTVNDRLMHKLSVEAPPKILVERYLIEIAKNYNVPYEPDSVVMAEAPP
B5: IST1NTD (N-terminal domain of IST1, residues 1-189) (domain or fragment, human, UniProt P53990 1-189, looked up)
chain: B4 chain
B6: CHMP1B, pure recombinant (natural protein, human, UniProt Q7LBR1 1-199, looked up)
chain: MSNMEKHLFNLKFAAKELSRSAKKCDKEEKAEKAKIKKAIQKGNMEVARIHAENAIRQKNQAVNFLRMSARVDAVAARVQTAVTMGKVTKSMAGVVKSMDATLKTMNLEKISALMDKFEHQFETLDVQTQQMEDTMSSTTTLTTPQNQVDMLLQEMADEAGLDLNMELPQGQTGSVGTSVASAEQDELSQRLARLRDQV

Tests used:
[1] = molecular target: B3; assay: pull-down
[2] = molecular target: B3; assay: negative-stain transmission electron microscopy
GST-CHMP3 V48D, A64D = molecular target: T1, GST-CHMP3 V48D, A64D; assay: pull-down
GST-CHMP3, wild type = molecular target: T2, GST-CHMP3, wild type; assay: pull-down
GST-CHMP3 I168D, L169D = molecular target: T3, GST-CHMP3 I168D, L169D; assay: pull-down
CHMP3 V48D, A64D = molecular target: T4, CHMP3 V48D, A64D; assay: negative-stain transmission electron microscopy
CHMP3 I168D, L169D = molecular target: T5, CHMP3 I168D, L169D; assay: negative-stain transmission electron microscopy
CHMP1B, pure recombinant = molecular target: B6; assay: SPR
[3] = molecular target: the molecule itself; assay: light scattering at 330 nm + negative-stain transmission electron microscopy
GST-IST1NTD E168R = GST-IST1NTD E168R (human, UniProt P53990 1-189, E168R); assay: SPR
GST-IST1NTD Y64D = GST-IST1NTD Y64D (human, UniProt P53990 1-189, Y64D); assay: SPR
GST-IST1NTD Y165A = GST-IST1NTD Y165A (human, UniProt P53990 1-189, Y165A); assay: SPR
GST-IST1NTD E67A = GST-IST1NTD E67A (human, UniProt P53990 1-189, E67A); assay: SPR
[4] = molecular target: the molecule itself; assay: negative-stain transmission electron microscopy

Binder: B1
binding result [1]: binds

Binder: B2
binding result [2]: binds

Binder: B3
binding result (GST-CHMP3 V48D, A64D): binds
binding result (GST-CHMP3, wild type): binds
binding result (GST-CHMP3 I168D, L169D): binds
binding result (CHMP3 V48D, A64D): binds
binding result (CHMP3 I168D, L169D): binds

Binder: B4
Kd (CHMP1B, pure recombinant): 22 µM

Binder: B5
binding result [3]: binds

Binder: B6
fold reduction of binding affinity against wild type IST1NTD (GST-IST1NTD E168R): > 8 fold
fold reduction of binding affinity against wild type IST1NTD (GST-IST1NTD Y64D): > 8 fold
fold reduction of binding affinity against wild type IST1NTD (GST-IST1NTD Y165A): > 8 fold
fold reduction of binding affinity against wild type IST1NTD (GST-IST1NTD E67A): 6 fold
binding result [4]: binds
